# Reference: patent US20240360477
# Tested on: MCP-TGIRT (GsI-IIC RT) fusion
# Assay: cell_activity
# Conditions: control used for normalization, HEK293T
substance,measurement,value
nanoluciferase mRNA with MS2 loops hybridized to DNA primer,activity (relative to TGIRT),1
